Results: patent EP4660202A1

Tests used:
huTregL1-his (human) [1] = biological target: T1, huTregL1-his (human) (UniProt Q96JA1); experiment: cross-linking MS (DSBU), sequence S90-L101 of huTregL1-his, chymotrypsin or trypsin
T1 sequence: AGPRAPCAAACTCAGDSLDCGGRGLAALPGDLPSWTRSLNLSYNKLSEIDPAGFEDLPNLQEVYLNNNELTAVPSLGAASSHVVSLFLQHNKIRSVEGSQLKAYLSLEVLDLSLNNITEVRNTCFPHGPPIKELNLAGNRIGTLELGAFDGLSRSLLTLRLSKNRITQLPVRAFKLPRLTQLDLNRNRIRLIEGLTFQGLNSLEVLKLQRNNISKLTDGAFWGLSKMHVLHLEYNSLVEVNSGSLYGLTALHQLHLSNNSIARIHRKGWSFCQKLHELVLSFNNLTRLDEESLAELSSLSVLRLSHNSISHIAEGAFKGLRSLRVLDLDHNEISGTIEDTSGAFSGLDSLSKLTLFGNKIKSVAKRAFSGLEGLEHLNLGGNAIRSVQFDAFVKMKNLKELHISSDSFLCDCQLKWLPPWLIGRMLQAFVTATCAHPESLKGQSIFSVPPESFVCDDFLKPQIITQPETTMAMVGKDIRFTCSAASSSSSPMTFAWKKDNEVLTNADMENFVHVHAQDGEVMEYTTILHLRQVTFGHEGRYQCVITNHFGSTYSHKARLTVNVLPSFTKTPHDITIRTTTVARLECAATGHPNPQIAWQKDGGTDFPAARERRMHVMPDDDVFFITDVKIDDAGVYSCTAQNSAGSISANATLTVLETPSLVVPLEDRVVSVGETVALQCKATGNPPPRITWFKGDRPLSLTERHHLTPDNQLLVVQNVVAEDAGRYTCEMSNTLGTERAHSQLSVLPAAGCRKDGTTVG

huTregL1-his (human) [2] = biological target: T1, huTregL1-his (human); experiment: cross-linking MS (DSBU), sequence L88-K92 of huTregL1-his, chymotrypsin or trypsin
huTregL1-his (human) [3] = biological target: T1, huTregL1-his (human); experiment: cross-linking MS (DSBU), sequence S362-K365 of huTregL1-his, trypsin-treated group
huTregL1-his (human) [4] = biological target: T1, huTregL1-his (human); experiment: covalent labelling MS (DEPC), sequence D111-L134 of huTregL1-his, chymotrypsin-treated group, antigen alone against antigen+antibody
huTregL1-his (human) [5] = biological target: T1, huTregL1-his (human); experiment: covalent labelling MS (DEPC), sequence Q542-Y553 of huTregL1-his, chymotrypsin-treated group, antigen alone against antigen+antibody
huTregL1-his (human) [6] = biological target: T1, huTregL1-his (human); experiment: cross-linking MS (DSBU), sequence N211-W222 of huTregL1-his, chymotrypsin or trypsin
huTregL1-his (human) [7] = biological target: T1, huTregL1-his (human); experiment: covalent labelling MS (DEPC), sequence E62-L101 of huTregL1-his, antigen alone against antigen+antibody

T% (peptides of the same sequence detected in the test sample compared to the control) (huTregL1-his (human) [1]): < 2% | T% (peptides of the same sequence detected in the test sample compared to the control) (huTregL1-his (human) [2]): < 2% | T% (peptides of the same sequence detected in the test sample compared to the control) (huTregL1-his (human) [3]): 0% | labeling decrease (%) (huTregL1-his (human) [4]): 15.3% | labeling decrease (%) (huTregL1-his (human) [5]): 14.7% | T% (peptides of the same sequence detected in the test sample compared to the control) (huTregL1-his (human) [6]): < 2% | labeling decrease (%) (huTregL1-his (human) [7]): 13.2%
B1: GTC210-03 clone (antibody, mouse IgG2a, V domains shown)
VH: EVQLLESGGGLVQPGGSLRLSCAASGFTFSSYDMSWVRQAPGKGLEWVSGISPDGSNIYYADSVKGRFTISRDNSKNTLYLQMNSLRAEDTAVYYCAKVGLRCRYEACSYAYGMDVWGQGTLVTVSS
VL: QSVLTQPPSASGTPGQRVTISCSGSSSNIGSNYVSWYQQLPGTAPKLLIYSDSHRPSGVPDRFSGSKSGTSASLAISGLRSEDEADYYCATWDSSLNGYVFGGGTKLTVLR
